Experiments:
[1] = substrate: O=C1/C(=C/c2ccc(O)c(O)c2)Oc2cc(O)ccc21; test: HPLC glucosylation assay, Lineweaver-Burk; format: biochemical, Ornithogalum saundersiae; conditions: 1 mM UDP-Glc fixed; sulfuretin 0-1 mM
Text: (§1) HPLC glucosylation assay, Lineweaver-Burk on OsUGT1

[2] = substrate: O=c1cc(-c2ccccc2)oc2c(O)c(O)ccc12; test: HPLC glucosylation assay, Lineweaver-Burk; format: biochemical, Ornithogalum saundersiae; conditions: 1 mM UDP-Glc fixed; 7,8-dihydroxyflavone 0-1 mM
Text: as §1

B1: OsUGT1 (Ornithogalum saundersiae) (protein)
chain: MEGKKQHVVLFPFMGQGHITPFLLLAELIHEYYPDYTITLVNTPLNIRNLQSSLPPGSKINLKSLPFDASSHGLPPDTENTKAIPFHLFINLFRASETLEPAFERLIAGITEEDGIPPLCIIADNFFSWTLHIARKFGVFHSTFLTSGAYGSALLFSLWKYLPHRNAYSDEFSLPDFPEIRLHHTQLSNILVVADGGDAWSVLLRRLNELCTRSDAVLVNTVKEFEARGLSMLREQLQGPIFPVGPLLCTSASHSMGMDLSDWLDSQPSASVLYVSFGSQNTIRASQMLKLAMALEATSRPFIWVIRPPVGFDVRVQFKSEWLPEGFEDRMRGTKQGFIVHQWAPQVEILSHPSTGAFLSHCGWNSVLESLVHGVPIIGWPLSAEQFYNSKFLMEEVGVCVEAARGNRESSEVKKEEVERAIEIVMDNEEIRRKAKETARVLKSALKEEENNTNVGSSLRGLKEFFQTALSKRVVT
Work on B1 yielded a Km [1] of 159 ± 11 µM, a Vmax [1] of 3.47 µM/min and a Km [2] of 713 ± 69 µM. It also gave a Vmax [2] of 28.3 µM/min.

Source: paper PMC6071076, “Transcriptome-Wide Identification of an Aurone Glycosyltransferase with Glycosidase Activity from Ornithogalum saundersiae” (Genes, 2018)
